The record followed here is patent publication US20050282740A1 (BETH ISRAEL DEACONESS MEDICAL CENTER, published 2005).

The test deals with T1, GST (UniProt P08515 1-218 = GST).
T1 construct: Control protein; also called control GST
The experiment in a line: fluorescence anisotropy. For orientation: In fluorescence polarisation assays a small probe gives low polarisation when free and higher when bound to something large.

Where no end group is shown, it is not given here. Fluorescein = N-terminal fluorescein label

T1 sequence (P08515 whole entry): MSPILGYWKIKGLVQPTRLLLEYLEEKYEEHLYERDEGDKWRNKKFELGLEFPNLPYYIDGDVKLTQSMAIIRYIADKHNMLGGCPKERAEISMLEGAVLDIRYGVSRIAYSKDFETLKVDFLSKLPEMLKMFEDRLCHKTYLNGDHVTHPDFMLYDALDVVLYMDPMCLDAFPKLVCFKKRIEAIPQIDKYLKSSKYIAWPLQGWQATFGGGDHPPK

B1: EQPLTPVTDL (peptide)
peptide: Fluorescein-EQPLTPVTDL
notes: also called nonphosphorylated Cdc25 Peptide
For B1, the binding result is recorded as “no binding”.
